Data set [1] relates to unnamed basic selection target protein (pI 9, 9 kDa). Put plainly: SELEX. Particulars: 2'-F at all nucleotides; 0.89% bound with protein vs 0.48% without after 4 rounds; 20 mM Tris pH 7.4, 150 mM NaCl, 4 mM KCl, 1 mM MgCl2, 1 mM CaCl2, 0.1% Tween-20, 37 C.
Data set [2] addresses DNase I (UniProt P00639). The data set can be described thus: cleavage_in_vitro. Particulars: 2'-F at all nucleotides; 100 mM NaOAc, 5 mM MgCl2, 37 C, 5 min.

A value given as a limit tells only on which side of the number the result lay.

Chain of DNase I (P00639 23-282): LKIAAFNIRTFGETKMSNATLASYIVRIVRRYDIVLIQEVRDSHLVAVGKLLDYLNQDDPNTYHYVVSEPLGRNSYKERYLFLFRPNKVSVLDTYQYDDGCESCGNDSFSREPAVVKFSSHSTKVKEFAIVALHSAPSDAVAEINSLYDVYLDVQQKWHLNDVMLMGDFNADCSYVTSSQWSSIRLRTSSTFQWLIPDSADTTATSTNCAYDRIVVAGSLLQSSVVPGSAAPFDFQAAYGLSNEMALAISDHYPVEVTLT

With “GTGGAACCGACAGTGGTACGTGNNNNNNNNNNNNNNNNNNNNNNNNNNNNNNNNNNNNNNNNCACGAGTGAAGTCTGAGCTCC [BSA-1C FNA pool, selection round 4]”, in data set [1], the binding signal (fold over no-protein control) stood at 1.85.

In data set [2], “NNNNNNNNNNNNNNNNNNNNNNNNNNNNNNNNNNNNNNNNCACGAGTGAAGTCTGAGCTCC” yielded a binding signal (fold more stable than DNA) of over 100.
